We go through four molecules from paper PMC7511888, “Dependence of PINK1 accumulation on mitochondrial redox system” (Aging Cell, 2020).

Assay [1] has as its target CHCHD4 (human (endogenous in HEK293)) (UniProt Q8N4Q1). In words: co-IP; HEK293 cells transfected with PINK1-EGFP or its mutants for 24 hr; lysed; immunoprecipitation of endogenous CHCHD4 with anti-CHCHD4 antibody; immunoblot; level in the precipitant compared to input.
For a further assay, the target named is T1, CHCHD4 (human (endogenous in HEK293), UniProt Q8N4Q1 1-142).
T1 construct: CHCHD4, mammalian homologue of yeast Mia40; endogenous protein of HEK293 cells, precipitated with polyclonal anti-CHCHD4 antibodies (Proteintech); source: endogenous, HEK293 lysate
T1 sequence (looked up): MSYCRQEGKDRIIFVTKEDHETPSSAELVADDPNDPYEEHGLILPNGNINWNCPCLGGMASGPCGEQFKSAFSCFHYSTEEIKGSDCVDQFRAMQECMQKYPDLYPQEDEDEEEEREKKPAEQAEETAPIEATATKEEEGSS
The description is as above. The conditions noted are these: partners not purified.

Turning to “PINK1‐EGFP ∆166‐171 (AA166‐171 deletion) (from UniProt Q9BXM7 78-581) (natural protein)”, the relative level in the precipitants as compared to input in assay [1] was 1.01.

B1: PINK1‐EGFP A168P (natural protein, UniProt Q9BXM7 78-581, looked up)
chain: AARLQRQFVVRAWGCAGPCGRAVFLAFGLGLGLIEEKQAESRRAVSACQEIQAIFTQKSKPGPDPLDTRRLQGFRLEEYLIGQSIGKGCSPAVYEATMPTLPQNLEVTKSTGLLPGRGPGTSAPGEGQERAPGAPAFPLAIKMMWNISAGSSSEAILNTMSQELVPASRVALAGEYGAVTYRKSKRGPKQLAPHPNIIRVLRAFTSSVPLLPGALVDYPDVLPSRLHPEGLGHGRTLFLVMKNYPCTLRQYLCVNTPSPRLAAMMLLQLLEGVDHLVQQGIAHRDLKSDNILVELDPDGCPWLVIADFGCCLADESIGLQLPFSSWYVDRGGNGCLMAPEVSTARPGPRAVIDYSKADAWAVGAIAYEIFGLVNPFYGQGKAHLESRSYQEAQLPALPESVPPDVRQLVRALLQREASKRPSARVAANVLHLSLWGEHILALKNLKLDKMVGWLLQQSAATLLANRLTEKCCVETKMKMLFLANLECETLCQAALLLCSWRAAL
notes: PINK1 as in PINK1-EGFP with the PD-associated mutation A168P; also called PINK1 A168P; PD‐associated mutant; source: HEK293, transfected, in lysate; not shown: EGFP (from the vector pEGFP-N3), C-terminal, kept
In the case of B1, in the assay with CHCHD4, the “relative level in the precipitants as compared to input” value (from here on “relative level in the precipitants”) stood at 0.2.

B2: PINK1‐EGFP Y171S (natural protein, UniProt Q9BXM7 78-581, looked up)
chain: AARLQRQFVVRAWGCAGPCGRAVFLAFGLGLGLIEEKQAESRRAVSACQEIQAIFTQKSKPGPDPLDTRRLQGFRLEEYLIGQSIGKGCSAAVSEATMPTLPQNLEVTKSTGLLPGRGPGTSAPGEGQERAPGAPAFPLAIKMMWNISAGSSSEAILNTMSQELVPASRVALAGEYGAVTYRKSKRGPKQLAPHPNIIRVLRAFTSSVPLLPGALVDYPDVLPSRLHPEGLGHGRTLFLVMKNYPCTLRQYLCVNTPSPRLAAMMLLQLLEGVDHLVQQGIAHRDLKSDNILVELDPDGCPWLVIADFGCCLADESIGLQLPFSSWYVDRGGNGCLMAPEVSTARPGPRAVIDYSKADAWAVGAIAYEIFGLVNPFYGQGKAHLESRSYQEAQLPALPESVPPDVRQLVRALLQREASKRPSARVAANVLHLSLWGEHILALKNLKLDKMVGWLLQQSAATLLANRLTEKCCVETKMKMLFLANLECETLCQAALLLCSWRAAL
notes: PINK1 as in PINK1-EGFP with Y171S; also called Y171S point mutant; source: HEK293, transfected, in lysate; not shown: EGFP (from the vector pEGFP-N3), C-terminal, kept
Turning to B2, the “relative level in the precipitants” value in the assay with CHCHD4 was determined as 3.31.

B3: PINK1‐EGFP V170G (natural protein, UniProt Q9BXM7 78-581, looked up)
chain: AARLQRQFVVRAWGCAGPCGRAVFLAFGLGLGLIEEKQAESRRAVSACQEIQAIFTQKSKPGPDPLDTRRLQGFRLEEYLIGQSIGKGCSAAGYEATMPTLPQNLEVTKSTGLLPGRGPGTSAPGEGQERAPGAPAFPLAIKMMWNISAGSSSEAILNTMSQELVPASRVALAGEYGAVTYRKSKRGPKQLAPHPNIIRVLRAFTSSVPLLPGALVDYPDVLPSRLHPEGLGHGRTLFLVMKNYPCTLRQYLCVNTPSPRLAAMMLLQLLEGVDHLVQQGIAHRDLKSDNILVELDPDGCPWLVIADFGCCLADESIGLQLPFSSWYVDRGGNGCLMAPEVSTARPGPRAVIDYSKADAWAVGAIAYEIFGLVNPFYGQGKAHLESRSYQEAQLPALPESVPPDVRQLVRALLQREASKRPSARVAANVLHLSLWGEHILALKNLKLDKMVGWLLQQSAATLLANRLTEKCCVETKMKMLFLANLECETLCQAALLLCSWRAAL
notes: PINK1 as in PINK1-EGFP with the PD-associated mutation V170G; also called PINK1 V170G; PD‐associated mutant; source: HEK293, transfected, in lysate; not shown: EGFP (from the vector pEGFP-N3), C-terminal, kept
As for B3, in the assay with CHCHD4, the “relative level in the precipitants” value was found to be 0.39.
